Measurements: US20180346605A1 (Janssen / Centocor, published 2018)

Key:
[1] = biological target: T1, FcγRI soluble extracellular domain, C-terminal His-tag (UniProt P12314 16-292, limits assumed); assay: AlphaScreen competition at pH 7.2: unlabeled competitor antibody titrated against biotinylated IgG1-L234A/L235A (legend: mAb RSV-L) on streptavidin donor beads for His-tagged FcγRI (200 ng/mL) on nickel acceptor beads
T1 construct: extracellular domain

[2] = biological target: T2, FcγRIIa soluble extracellular domain, C-terminal His-tag (UniProt P12318 34-217, limits assumed); assay: AlphaScreen competition at pH 7.2: unlabeled competitor antibody titrated against biotinylated wild-type IgG1 (legend: mAb RSV-L) on streptavidin donor beads for His-tagged FcγRIIa (10 ng/mL) on nickel acceptor beads
T2 construct: extracellular domain
T2 sequence (looked up): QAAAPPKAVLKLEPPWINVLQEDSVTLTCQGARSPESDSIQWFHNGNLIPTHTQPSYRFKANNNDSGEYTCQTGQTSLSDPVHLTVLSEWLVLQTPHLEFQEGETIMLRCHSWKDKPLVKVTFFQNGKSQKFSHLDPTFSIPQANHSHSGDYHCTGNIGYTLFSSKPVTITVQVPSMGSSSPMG

His-tagged FcRn = biological target: T3, His-tagged FcRn (UniProt P55899 24-297; P61769 21-119); assay: AlphaScreen competition at pH 6.0: unlabeled competitor antibody titrated against biotinylated wild-type IgG1 (legend: mAb RSV-L) on streptavidin donor beads for His-tagged FcRn on nickel acceptor beads
T3 construct: also called neonatal Fc receptor

[3] = biological target: T4, FcγRIIb soluble extracellular domain, C-terminal His-tag (UniProt P31994 43-217, limits assumed); assay: AlphaScreen competition at pH 7.2: unlabeled competitor antibody titrated against biotinylated wild-type IgG1 (legend: mAb RSV-L) on streptavidin donor beads for His-tagged FcγRIIb (14 ng/mL) on nickel acceptor beads
T4 construct: extracellular domain
T4 sequence (looked up): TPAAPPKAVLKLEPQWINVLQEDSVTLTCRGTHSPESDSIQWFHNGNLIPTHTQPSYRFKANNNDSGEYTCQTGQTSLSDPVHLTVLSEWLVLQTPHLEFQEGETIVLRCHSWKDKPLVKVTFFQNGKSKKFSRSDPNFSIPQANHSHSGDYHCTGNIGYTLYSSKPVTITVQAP

[4] = biological target: T5, FcγRIIIa soluble extracellular domain, C-terminal His-tag (UniProt P08637 17-208, limits assumed); assay: AlphaScreen competition at pH 7.2: unlabeled competitor antibody titrated against biotinylated wild-type IgG1 (legend: mAb RSV-L) on streptavidin donor beads for His-tagged FcγRIIIa (200 ng/mL) on nickel acceptor beads
T5 construct: extracellular domain

| Binder | IC50 (read off the curve) [1] | IC50 (read off the curve) [2] | IC50 (read off the curve) (His-tagged FcRn) | IC50 (read off the curve) [3] | IC50 (read off the curve) [4] |
| --- | --- | --- | --- | --- | --- |
| bsRSV-L[Q311R] (bispecific antibody, human IgG1, kappa, also called bispecific anti-RSV/gp120 with asymmetrical F405L Q311R) heavy 1: not shown light 1: EIVLTQSPGTLSLSPGERATFSCRSSHSIRSRRVAWYQHKPGQAPRLVIHGVSNRASGISDRFSGSGSGTDFTLTITRVEPEDFALYYCQVYGASSYTFGQGTKLERKRTVAAPSVFIFPPSDEQLKSGTASVVCLLNNFYPREAKVQWKVDNALQSGNSQESVTEQDSKDSTYSLSSTLTLSKADYEKHKVYACEVTHQGLSSPVTKSFNRGEC heavy 2: not shown light 2: not shown | ~4 nM | ~100 nM | ~50 nM | ~100 nM | ~80 nM |
| bsRSV-L[TLQ] (bispecific antibody, human IgG1, kappa, also called bispecific anti-RSV/gp120 with asymmetrical F405L/T307P/L309Q/Q311R) heavy 1: not shown light 1: EIVLTQSPGTLSLSPGERATFSCRSSHSIRSRRVAWYQHKPGQAPRLVIHGVSNRASGISDRFSGSGSGTDFTLTITRVEPEDFALYYCQVYGASSYTFGQGTKLERKRTVAAPSVFIFPPSDEQLKSGTASVVCLLNNFYPREAKVQWKVDNALQSGNSQESVTEQDSKDSTYSLSSTLTLSKADYEKHKVYACEVTHQGLSSPVTKSFNRGEC heavy 2: not shown light 2: not shown | ~4 nM | ~100 nM | ~100 nM | – | ~80 nM |
